{
  "source": "paper PMC3561183",
  "about": "“Discovery of a Siderophore Export System Essential for Virulence of Mycobacterium tuberculosis” (PLoS Pathogens, 2013)",
  "binders": {"B1": {"name": "C-terminal soluble domain of MmpS4 (residues 52-140) (domain or fragment)", "chain": "HLTYEIFGPPGTVADISYFDVNSEPQRVDGAVLPWSLHITTNDAAVMGNIVAQGNSDSIGCRITVDGKVRAERVSNEVNAYTYCLVKSA", "notes": "MmpS4 (rv0451c) of Mycobacterium tuberculosis, residues 52-140: N-terminally truncated, lacks the predicted transmembrane helix; also called MmpS4_(52-140); water-soluble domain of MmpS4"}},
  "molecular_target": "T1, Loop L1 of MmpL4 (residues 58-199) (Mycobacterium tuberculosis, UniProt P9WJV3 58-199)",
  "T1 construct": "MmpL4 of Mycobacterium tuberculosis, predicted loop L1 between TM1 and TM2, residues 58-199; also called L1 loop of MmpL4; periplasmic loop of MmpL4",
  "T1 sequence": "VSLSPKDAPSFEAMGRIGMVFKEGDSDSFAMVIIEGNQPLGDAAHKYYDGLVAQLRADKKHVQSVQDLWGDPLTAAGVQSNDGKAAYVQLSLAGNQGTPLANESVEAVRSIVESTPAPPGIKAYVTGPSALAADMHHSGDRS",
  "test": "pull-down",
  "settings": "both partners purified",
  "data": [
    {"binder": "B1", "values": [
      {"measurement": "binding result", "value": "binds"}
    ]}
  ]
}
